In paper PMC3513319, “The Importance of the Interaction of CheD with CheC and the Chemoreceptors Compared to Its Enzymatic Activity during Chemotaxis in Bacillus subtilis” (PLoS ONE, 2012):

Key:
[1] = target: GST-CheD-F102E (Bacillus subtilis) (UniProt P40404); test: pull-down; 80 µM GST-CheD or GST-CheD-F102E on glutathione beads; 100 µM CheC or receptor fragment added for 10 min; washed with TBS + 1% Triton X-100; eluted with glutathione; SDS-PAGE, Coomassie stain, densitometry
CheC [2] = target: T1, CheC (Bacillus subtilis, UniProt P40403 1-209); test: SPR; Biacore 3000, NTA chip; 500 RU of GST-6xHis-CheD immobilised; CheC injected at different concentrations (80 µl, 20 µl/min); running buffer TKMD (50 mM Tris pH 8.0, 50 mM KCl, 5 mM MgCl2, 0.1 mM DTT); triplicate; settings: both partners purified
T1 construct: CheC, CheY-P phosphatase, Bacillus subtilis; also called pTM18 (pGEX-6P-2::cheC2); source: E. coli, overexpressed as GST-CheC, purified (GSTrap), GST removed with PreScission protease; not shown: GST, N-terminal, cleaved
T1 sequence (looked up): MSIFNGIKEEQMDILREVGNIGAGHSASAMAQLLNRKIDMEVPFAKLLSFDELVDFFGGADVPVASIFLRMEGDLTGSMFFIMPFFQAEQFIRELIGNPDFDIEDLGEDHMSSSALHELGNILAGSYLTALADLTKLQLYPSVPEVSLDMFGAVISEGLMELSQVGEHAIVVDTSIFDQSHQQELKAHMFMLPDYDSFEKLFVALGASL

CheC [3] = target: T1, CheC; test: SPR; as a1, but with 20 µM CheY and 5 mM acetyl phosphate (CheYp) in the running buffer and in the injected CheC; settings: both partners purified
CheC [4] = target: T1, CheC; test: SPR; as a1, but with 20 µM CheY in the running buffer and in the injected CheC; settings: both partners purified

CheC (from UniProt P40403 1-209) (enzyme)
percent of the CheC bound by GST-CheD [1]: 10%

B1: GST-6xHis-CheD (enzyme, Bacillus subtilis, UniProt P40404 1-166, looked up)
chain: MSTTEAVVIKVGIADVKIARFPDTIRTSGLGSCVGLVLYDKEKQTAGLVHVMLPDSTLSKTAELNRAKYADTAVQTTIDMLIEAGCRKFALKAKLAGGSEMFKFKSTNDLMKIGPRNVLAIKEQLSLFNIPIISEDTGGSSGRTIEFEPKSCMLHIRTVKQGEKTI
notes: CheD, chemoreceptor glutamine deamidase, Bacillus subtilis; cheD gene amplified from OI1085 genomic DNA, cloned in pGEX-6P-2; Order of the tags by the printed name GST-6xHis-CheD: the 6xHis lies between GST and CheD; Held on the NTA chip by the 6xHis; also called pWY88 (pGEX-6P-2::6xHis-cheD2); source: E. coli, overexpressed, purified (GSTrap); not shown: GST, N-terminal, kept; 6xHis, N-terminal, …
Kd (CheC [2]): 3.95 µM
koff (CheC [2]): 0.0568 s⁻¹
kon (CheC [2]): 14700 M⁻¹ s⁻¹
Kd (CheC [3]): 0.546 µM
koff (CheC [3]): 0.0976 s⁻¹
kon (CheC [3]): 179000 M⁻¹ s⁻¹
Kd (CheC [4]): 7.01 µM
koff (CheC [4]): 0.0743 s⁻¹
kon (CheC [4]): 10600 M⁻¹ s⁻¹
